Results published in paper PMC4144766.

Tests used:
[1] = molecular target: YFP^N-TaNPSN11 (full-length TaNPSN11 fused to the N-terminal part of YFP) (Triticum aestivum (common wheat)); experiment: split reporter (BiFC, NanoBiT); BiFC in tobacco (Nicotiana benthamiana) protoplasts; YFP^N (pSY736) and YFP^C (pSY735) fusions co-expressed by the polyethylene glycol method; fluorescence monitored 24-48 hours after transformation; fluorescent and observed cells counted from ten fields of vision
[2] = molecular target: YFP^N-TaHSP90 (Triticum aestivum); experiment: as above

YFP^N-TaNPSN11 (full-length TaNPSN11 fused to the N-terminal part of YFP) (Triticum aestivum (common wheat)), sequence (main, as listed by the source): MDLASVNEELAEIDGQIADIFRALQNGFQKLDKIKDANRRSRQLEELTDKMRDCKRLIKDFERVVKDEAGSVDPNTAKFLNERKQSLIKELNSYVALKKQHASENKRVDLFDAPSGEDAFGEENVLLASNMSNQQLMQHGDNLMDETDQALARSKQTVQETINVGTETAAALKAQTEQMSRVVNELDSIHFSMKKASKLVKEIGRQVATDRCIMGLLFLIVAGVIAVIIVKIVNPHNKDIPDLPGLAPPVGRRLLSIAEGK

| ratio of fluorescent cells [1] | ratio of fluorescent cells [2] | Substance |
| --- | --- | --- |
| 0.06 |  | YFP^C-TaSYP132 (full-length TaSYP132 fused to the C-terminal part of YFP) (natural protein) |
|  | 0.25 | YFP^C-TaRAR1 (natural protein) |
